{"source": "patent US9540424B2", "about": "“Serum albumin binding molecules” (BRISTOL-MYERS SQUIBB COMPANY, priority 2010, dated 2017)", "molecules": {"B1": {"name": "SABA1-FGF21v1: SABA1-FGF21 fusion, SEQ ID NO: 132; 293 aa; DNA SEQ ID NO: 184 (protein)", "chain": "MGVSDVPRDLEVVAATPTSLLISWHSYYEQNSYYRITYGETGGNSPVQEFTVPYSQTTATISGLKPGVDYTITVYAVYGSKYYYPISINYRTEIEKPSQGSGSGSGSGSGSGSPIPDSSPLLQFGGQVRQRYLYTDDAQQTEAHLEIREDGTVGGAADQSPESLLQLKALKPGVIQILGVKTSRFLCQRPDGALYGSLHFDPEACSFRELLLEDGYNVYQSEAHGLPLHLPGNKSPHRDPAPRGPARFLPLPGLPPALPEPPGILAPQPPDVGSSDPLSMVGPSQGRSPSYAS"}}, "key": {"CySA": {"biological_target": "T1, CySA (Macaca fascicularis, UniProt A2V9Z4)", "T1 construct": "purchased Equitech-Bio CMSA", "T1 sequence (A2V9Z4 25-608)": "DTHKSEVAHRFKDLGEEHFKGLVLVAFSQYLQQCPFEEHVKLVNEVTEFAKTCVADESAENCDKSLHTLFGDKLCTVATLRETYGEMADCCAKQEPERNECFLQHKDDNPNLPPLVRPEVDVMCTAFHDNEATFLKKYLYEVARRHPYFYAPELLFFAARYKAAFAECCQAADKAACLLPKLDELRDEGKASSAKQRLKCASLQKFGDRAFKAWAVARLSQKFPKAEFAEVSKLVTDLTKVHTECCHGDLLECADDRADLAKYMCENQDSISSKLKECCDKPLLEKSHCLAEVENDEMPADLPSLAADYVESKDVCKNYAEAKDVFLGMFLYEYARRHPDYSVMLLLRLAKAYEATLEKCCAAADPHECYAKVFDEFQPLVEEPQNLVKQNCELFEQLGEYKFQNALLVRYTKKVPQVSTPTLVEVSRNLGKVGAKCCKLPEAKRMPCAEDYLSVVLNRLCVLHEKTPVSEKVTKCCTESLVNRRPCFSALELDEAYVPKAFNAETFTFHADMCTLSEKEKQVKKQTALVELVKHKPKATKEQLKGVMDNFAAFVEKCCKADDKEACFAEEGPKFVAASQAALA", "assay": "SPR (Biacore T100) kinetics of FGF21-SABA1 fusions: CySA", "type": "binding, cynomolgous monkey", "details": "flow rate 30 μl/min", "procedure": "The binding competency and thermodynamic characterization of FGF21-SABA fusion variants to human serum albumin were performed using Isothermal Titration calorimetry on a Microcal VP-ITC instrument (Microcal Inc. Amherst Mass., USA). […] The detailed experimental conditions are described below.\nFor the calorimetry assay, the FGF21-SABA variant SABA1-FGF21v1 (SEQ ID NO: 132) was used. […] For the SPR studies, SABA1-FGF21v1 and SABA1-FGF21v3 (SEQ ID NO: 134) were examined.\nSerum albumins were dissolved in PBS buffer (10 mM sodium phosphate, 130 mM sodium chloride, pH 7.1) to a concentration of 10 mg/ml, and subsequently diluted to 8-10 μg/ml in 10 mM sodium acetate pH 5.0 for immobilization. Serum albumins were immobilized on a Series S CMS sensor chip using standard ethyl(dimethylaminopropyl) carbodiimide (EDC)/N-hydroxysuccinimide (NHS) chemistry in HBS-EP+ running buffer at 25° C., following general manufacturer guidelines. Flow cell 1 was activated with EDC/NHS and blocked with ethanolamine. […] Kinetic experiments were performed in PBS buffer containing 0.05% tween-20 (running buffer) at either 25° C. or 37° C. […] These samples were injected across flow cells 1-4 for 300 s, with a 420 s dissociation time, at flow rates of 30 μl/min or 60 μl/min to check for mass transfer limitation. All surfaces were regenerated with 2 pulses of 10 mM glycine pH 2.0 at 30 μl/min for 30 s. Raw sensograms were “double-referenced” by subtracting flow cell 1 data from flow cell 2, 3 or 4 data, and then subtracting a separate buffer cycle from each sensogram. The double-referenced sensogram data was fitted to a 1:1 Langmuir model using Biacore T100 Evaluation software version 2.0.2 to determine the association rate constant (ka), the dissociation rate constant (kd), and the equilibrium dissociation constant (KD)."}, "diabetic ob/ob mice": {"tested_on": "diabetic ob/ob mice", "assay": "HbA1c in diabetic ob/ob mice after 14 days of SABA1-FGF21v1 premixed with HSA", "type": "in vivo, mouse", "details": "for plasma levels: […] hours after the last dose", "procedure": "HbA1c was measured in plasma samples 24 hours after the last dose (see FIG. 19).\nSABA1-FGF21v1 plasma levels at the 0.01, 0.1 and 1 mg/kg doses were 3.85, 2.28 and 28.73 ng/ml respectively, 24 hours after the last dose."}}, "data": [{"molecule": "B1", "values": [{"measurement": "ka", "setting": "CySA; 25° C.", "result": 3930, "unit": "M⁻¹ s⁻¹"}, {"measurement": "kd", "setting": "CySA; 25° C.", "result": 0.0047, "unit": "s⁻¹"}, {"measurement": "ka", "setting": "CySA; 37° C.", "result": 4440, "unit": "M⁻¹ s⁻¹"}, {"measurement": "kd", "setting": "CySA; 37° C.", "result": 0.0123, "unit": "s⁻¹"}, {"measurement": "plasma levels", "setting": "diabetic ob/ob mice; 0.01 mg/kg dose", "result": 3.85, "unit": "ng/mL"}, {"measurement": "decrease in HbA1c compared to baseline", "setting": "diabetic ob/ob mice; 0.01 mg/kg with HSA 6 mg/kg, s.c. q.d. 14 days", "result": "no decrease"}, {"measurement": "plasma levels", "setting": "diabetic ob/ob mice; 0.1 mg/kg dose", "result": 2.28, "unit": "ng/mL"}, {"measurement": "decrease in HbA1c compared to baseline", "setting": "diabetic ob/ob mice; 0.1 mg/kg with HSA 6 mg/kg, s.c. q.d. 14 days, not statistically significant", "result": 0.39, "unit": "%"}, {"measurement": "plasma levels", "setting": "diabetic ob/ob mice; 1 mg/kg dose", "result": 28.73, "unit": "ng/mL"}, {"measurement": "decrease in HbA1c with respect to baseline", "setting": "diabetic ob/ob mice; 1 mg/kg with HSA 6 mg/kg, s.c. q.d. 14 days", "result": 0.9, "unit": "%"}, {"measurement": "vehicle subtracted decrease in HbA1c", "setting": "diabetic ob/ob mice; 1 mg/kg with HSA 6 mg/kg, s.c. q.d. 14 days, statistically significant", "result": 0.94, "unit": "%"}]}]}
